Results as given in PMC9117644 (Frontiers in Bioengineering and Biotechnology, 2022).

Target: T1, human TLR4 ectodomain (S2-derived) (human, UniProt O00206 23-629)
T1 construct: human toll-like receptor 4 ectodomain, UniProtKB O00206, P23-M629, Drosophila codon-optimized; Cloned into pExpreS2-1-CRPA (Addgene #175445): N-terminal BiP signal peptide for secretion, C-terminal thrombin-cleavable Protein A tag; a few residues of the thrombin site probably remain after cleavage; also called toll-like receptor 4; Drosophila-derived TLR4; source: purified (IgG Sepharose, …)
Assay: SEC; analytical SEC, Superdex 200 Increase 30/100 on a Dionex Ultimate 3000 UHPLC; 100-µl injections of 200 µg TLR4, 400 µg MD-2, or 200 µg TLR4 + 400 µg MD-2; A280 traces
Conditions: both partners purified

T1 sequence (O00206 23-629): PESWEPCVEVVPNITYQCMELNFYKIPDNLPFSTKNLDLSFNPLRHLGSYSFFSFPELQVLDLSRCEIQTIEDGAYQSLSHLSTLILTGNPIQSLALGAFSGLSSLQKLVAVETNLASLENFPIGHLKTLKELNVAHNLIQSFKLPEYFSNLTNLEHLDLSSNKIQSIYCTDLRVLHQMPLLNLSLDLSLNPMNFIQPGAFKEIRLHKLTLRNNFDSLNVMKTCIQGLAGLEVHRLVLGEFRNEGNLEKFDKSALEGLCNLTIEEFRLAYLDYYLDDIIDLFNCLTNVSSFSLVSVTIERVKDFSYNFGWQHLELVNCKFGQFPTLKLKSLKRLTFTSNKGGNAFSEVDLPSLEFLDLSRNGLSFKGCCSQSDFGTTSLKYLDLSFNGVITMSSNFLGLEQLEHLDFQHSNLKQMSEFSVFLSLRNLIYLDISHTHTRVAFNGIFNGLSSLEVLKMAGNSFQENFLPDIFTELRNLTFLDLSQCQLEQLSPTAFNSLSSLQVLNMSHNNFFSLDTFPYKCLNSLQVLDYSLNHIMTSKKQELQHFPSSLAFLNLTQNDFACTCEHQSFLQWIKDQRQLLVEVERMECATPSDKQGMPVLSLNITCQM

binding result: binds
B1: human MD-2 (S2-derived, Protein A tagged) (natural protein, UniProt Q9Y6Y9 19-160, looked up)
chain: QKQYWVCNSSDASISYTYCDKMQYPISINVNPCIELKRSKGLLHIFYIPRRDLKQLYFNLYITVNTMNLPKRKEVICRGSDDDYSFCRALKGETVNTTISFSFKGIKFSKGKYKCVVEAISGSPEEMLFCLEFVILHQPNSN
notes: human lymphocyte antigen 96 (MD-2), UniProtKB Q9Y6Y9, Q19-N160, Drosophila codon-optimized; Cloned into pExpreS2-1-CRPA (Addgene #175445): N-terminal BiP signal peptide for secretion, thrombin site and Protein A at the C-terminus; the tag was routinely left on for stability; also called lymphocyte antigen 96; source: purified (IgG Sepharose, SEC); not shown: Protein A, C-terminal, kept
